B1: single domain antibody 01-9F (VHH)
VHH: QVQLVESGGGSVQAGGSLRLSCVVSGLPYERYCVAWFRQGPGKEREGVARILSDGTTSYSDSVKGRFTISKDNAKNTLYLQMNSLKSEDTATYYCAAEAFRPFTPSDGDCTTVLGIDYWGKGTPVTVSS
B2: sacituzumab (benchmark, an analog of sacituzumab, in house made) (antibody, human IgG1, kappa, V domains shown)
VH: SVQLQQSGSELKKPGASVKVSCKASGYTFTNYGMNWVKQAPGQGLKWMGWINTYTGEPTYTDDFKGRFAFSLDTSVSTAYLQISSLKADDTAVYFCARGGFGSSYWYFDVWGQGSLVTVSS
VL: DIQLTQSPSSLSASVGDRVSITCKASQDVSIAVAWYQQKPGKAPKLLIYSASYRYTGVPDRFSGSGSGTDFTLTISSLQPEDFAVYYCQQHYITPLTFGAGTKVEIKR
notes: also called BM; BM1

Key:
[1] = target: T1, human TROP2-his protein (human, UniProt P09758 27-274); test: SPR Biacore T200; antibody captured on anti-human IgG chip, 40 nM human TROP2-his as analyte
T1 construct: also called biotin labeled human TROP2-his protein
T1 sequence: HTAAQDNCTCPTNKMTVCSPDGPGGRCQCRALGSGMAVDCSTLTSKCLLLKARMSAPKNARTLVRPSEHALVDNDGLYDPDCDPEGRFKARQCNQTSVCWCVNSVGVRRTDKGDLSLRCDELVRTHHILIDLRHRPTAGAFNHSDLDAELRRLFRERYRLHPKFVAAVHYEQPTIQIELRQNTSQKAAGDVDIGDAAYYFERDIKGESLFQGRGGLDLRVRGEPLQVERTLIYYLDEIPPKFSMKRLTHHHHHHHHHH
Excerpt: The purified anti-TROP2 mouse monoclonal antibodies (mAbs) were characterized for binding affinity and binding kinetics by Biacore T200 system (GE healthcare, Pittsburgh, PA, USA). Briefly, goat anti-human IgG (GE healthcare, Cat #BR100839, Human Antibody Capture Kit) was covalently linked to a CM5 chip (carboxy methyl dextran coated chip from GE healthcare #BR100530) via primary amines, using a standard amine coupling kit (GE healthcare, Pittsburgh, PA, USA) provided by Biacore. Un-reacted moieties on the chip (biosensor) surface were blocked with ethanolamine. The anti-TROP2 antibodies of the disclosure and the benchmark at the concentration of 2 μg/ml were respectively flowed onto the chip at a flow rate of 10 μL/min. Then, serially diluted human TROP2-his protein (prepared in-house with SEQ ID NO: 16), or cynomolgus TROP2-his protein (prepared in-house with SEQ ID NO: 19), 2-fold dilution in HBS-EP⁺ buffer (provided by Biacore) starting at 160 nM, were flowed onto the chip at a flow rate of 30 μL/min. The antigen-antibody association kinetics was followed for 2 minutes and the dissociation kinetics was followed for 10 minutes. The association and dissociation curves were fit to a 1:1 Langmuir binding model using BIAcore evaluation software.
For the BIAcore test, cell supernatants containing humanized 01-9F-CDR-V11 antibodies were respectively flowed onto the chip at a flow rate of 10 μL/min, and 40 nM human TROP2-his protein (prepared in-house with SEQ ID NO: 16) in HBS-EP⁺ buffer (provided by Biacore) were flowed onto the chip at a flow rate of 30 μL/min.

[2] = target: T1, human TROP2-his protein; test: competitive ELISA: antibody pre-mixed with biotin labeled human TROP2-his, added to plate coated with the benchmark (sacituzumab analog); unit taken from the x axis (nM)
[3] = target: T1, human TROP2-his protein; test: competitive ELISA: antibody pre-mixed with biotin labeled human TROP2-his, added to plate coated with the benchmark (sacituzumab analog); unit taken from the x axis (ng/mL)
Experimental: (§1) The anti-TROP2 antibodies were tested for their epitope binding in a competitive ELISA assay. Briefly, 100 μl of the benchmark at 1 μg/mL in PBS was coated on 96-well micro plates for 2 hours at 37° C. ELISA plates were washed once with wash buffer (PBS+0.05% v/v Tween-20, PBST) and then blocked with 200 μl blocking buffer (5% w/v non-fatty milk in PBST) for 2 hours at 37° C. While blocking, the anti-TROP2 antibodies of the disclosure or controls were diluted with biotin labeled human TROP2-his protein (SEQ ID NO: 16, 34 ng/mL in 2.5% w/v non-fatty milk in PBST), starting at 80 nM with a 5-fold serial dilution, and incubated at room temperature for 40 minutes. After plate washing 4 times, the antibody/TROP2-his protein mixtures were added to benchmark coated plates, 100 μl per well. After incubation at 37° C. for 40 minutes, plates were washed 4 times again using wash buffer. Then the plates were added and incubated with 100 μl Peroxidase Streptavidin (1:10000 dilution in PBST buffer, Jackson Immunoresearch, Cat #016-030-084) for 40 minutes at 37° C. Plates were washed again using wash buffer. […] The absorbance of each well was read on a microplate reader using dual wavelength mode with 450 nm for TMB and 630 nm as the reference wavelength, and the OD (450-630) values were plotted against antibody concentration. Data was analyzed using Graphpad Prism software and IC₅₀ values were reported.

[4] = target: T1, human TROP2-his protein; test: competitive ELISA: soluble benchmark pre-mixed with biotin labeled human TROP2-his, added to plate coated with the benchmark (self-competition); unit taken from the x axis (nM)
[5] = target: T1, human TROP2-his protein; test: competitive ELISA: soluble benchmark pre-mixed with biotin labeled human TROP2-his, added to plate coated with the benchmark (self-competition); unit taken from the x axis (ng/mL)
Experimental: as §1

Row | Binder | Kd [1] [nM] | koff [1] [s⁻¹] | kon [1] [M⁻¹ s⁻¹] | IC50 [2] [nM] | IC50 [3] [µg/mL] | IC50 [4] [nM] | IC50 [5] [µg/mL]
1 | B1 | 0.188 | 0.000224 | 1.19e+06 | 0.247 | 0.0274 |  | 
2 | B2 |  |  |  |  |  | 0.563 | 0.0543
